# Data: the DeepSol protein solubility set
# Test: soluble on expression in E. coli; label from the status in PepcDB or PDB records
row,Sequence,soluble on expression in E. coli
1,SSIRFYLAPNDADFTVYYTGTDGNWYETKATYKKVSVKKYEVTLPEITIGGAAEIEFKGVHRGPPNTVISAKFDVVGGTTQPEPEPDPAPEPQPAPEPEPGTSVNPAAPTAVDPATAPSCVEKGYINIPDTKGVDYFIGGELKHAGQHFYEGQKASVKVTAKPQNGYQFAAGAKTEWSFDFSGEVKDCSDSSEDPKPAAVEGRHFDAIGHEFAVEADPVDPTKPNAFTAKVTAESHMKYATVRIETDATFLDPQKYNLTLDQIEPGVTLQKRNVNIGNGFITMDVVPVKDGKPVDSAVVPKDAVFTFTNNLSENKNLKIALDVYGANKSTPKPPDIISPPDGAQWVHGRVPNPPMPKRCGLRIAVVADLSTSLKYADSNGFDESKKAANALIDSLAGTPAELGIYNFAGGAPRNPAGSTYGQNPPYISLQSDDGVSRAKSIVSNWNGNGSTNWEAGLKQVAAGNYDVVYFITDGMPTYSSKAPQLGLGGEFVQESALNQAIDAANELKAAGTRVVPIMVDLTVGGKNAQHTTVTQDLVLKNVRFWKRGTSNSEPGLYFQFTNKYVDAASYVGDDTTANFEIAYKNGGFKVWERTSRGRNIDVTRDQSKWTYGPREVKTMGEDISGTGDTIRVEQYSQLAAQMKKIGEELALRCNGVVKVKKRIVDENGRAIEDGVPGWEFTLSAGGQDIIDPGNGDRVRKSLKATSSANEDRGTASWNIMSEQEQQLTLVETQQPGFNLYKRNDKNAVCTETRDGVMKPIEVTNDGEFGFKVKMRAKDKKLSSVSCVVDNYKQPETPPGKLTFKKAQYNGDKIEEIPGLGGATFEIYPSKGDQPDYSAEALYTIKPGQESIEVKTTGTFFLVETKAPKGLNLLAQPVKFEISVDETTKKYKISVGSTSSGQVQAKGEGDKMILTVADTTAGELPKTGG,not soluble
2,MSLGHELYLVGGSVRDALLGRLSPDLDFTTDARPERVQEIVRPWADAVWDTGIEFGTVGVGKSDHRMEITTFRADSYDRVSRHPEVRFGDCLEGDLVRRDFTTNAMAVRVTATGPGEFLDPLGGLAALRAKVLDTPAAPSGSFGDDPLRMLRAARFVSQLGFAVAPRVRAAIEEMAPQLARISAERVAAELDKLLVGEDPAAGIDLMVQSGMGAVVLPEIGGMRMAIDEGHHHHHH,not soluble
3,MSQSYHRPRPAGMAGAILDKQASKFNDVEAGYLLEWIRDLTKEDFDCEASRDNFREQLKDGQRLCKLVNAIKAGSVKKIMKPISNFNCLENINQFSTAARSLGVKDEETFQSVDLFDGRDLFSVTVTLQSLARKVEKLGITPPKQVSKDQIVNQ,not soluble
4,MELRAATKLTEEKYELKEGQTLDVKCDYTLEKFASSQKAWQIIRDGEMPKTLACTERPSKNSHPVQVGRIILEDYHDHGLLRVRMVNLQVEDSGLYQCVIYQPPKEPHMLFDRIRLVVTLEHHHHHH,soluble
5,APRSVAMVVPQGSDIRQLSDLRGKRIALNKGSNVHWLLLQILEDAGLGLNDVRVVYTPPKYPLTASDYLAVDAWMMWDPLLSDAEHTGELRVVASGEGRVNNHQFYLSRRDYLAQHGDIMRRLLTELTHTGQFIDSHRGEAARLLSAELGI,not soluble
6,SLGKEVATRATNDERCKILEQRLEQGMVFTEYERILKKRLVDGECSTARLPENAERNRFQDVLPYDDARVELVPTKENNTGYINASHIKVSVSGIEWDYIATQGPLQNTCQDFWQMVWEQGIAIIAMVTAEEEGGREKSFRYWPRLGSRHNTVTYGRFKITTRFRTDSGCYATTGLKMKHLLTGQERTVWHLQYTDWPEHGCPEDLKGFLSYLEEIQSVRRHTNSTSDPQSPNPPLLVHSSAGVGRTGVVILSEIMIACLEHNEVLDIPRVLDMLRQQRMMLVQTLCQYTFVYRVLIQFLKSSRLI,soluble
7,MGSDKIHHHHHHAICLRDDIGNYVIKWETDPVMEGIVKMTVSDNPDLFTNESPIIYANIKDGVATYITNDNISRKYFRLSFNDKYPRIIGARSAVMDSVQNFRDLGGYTSTNGKTVKWGKVFRSGELSSLSEWDSIRLDNLGIKTIIDLRTNQETLTAPIKYTKANILQIPISVGKIADAPQRVIEGRMRKGDAGVYMEDEYLQFVTDNTDQFAKVLEQFQNEDNYPILISCSYGKDRTGFLTAMLLAALDIPRDAIMEDYLTSNQYIDTSHLADIVKHLSTDAQESITVFLTANEGLMDLAFHKIKKEYGSTEKYLSKGLRLTDKKRERLKDILLY,not soluble
8,MGSDKIHHHHHHMNEAQQLQQMQPLLYKQLQKSFEHGRLAHAYLFEGDTGTGKQEFGLWMAKHVFCTNLVNQQPCNECHNCVRINENEHPDVLRIAPDGQTIKVNQIRELKAEFSKSGVETAKKVFLIQEADKMSTGAANSLLKFLEEPEGQILAILETTSLSRILPTIQSRCQTLHFQPLVKKTLIDRLIKQGIGEKTATLLAELTNSFEKAVEISQDEWFNEAREIILQWFNYLKSNDLQAFIYVQKKMVKVFKEKEQQALSFDLLMVYYRQLLEESVATQQAKKVTEEQAERLALILKARQKWTANVSWQNVCEQLVIQMIHPKS,not soluble
9,NGGTSKTVKFERFEDYNGPKPARAKNMVWQIIPDASTRTNALQSKSVQAIDSVPYLSIDQLKGTHTVESVQGFGLLFAMFNNDKSNPFSDLKNRQAFLYGIDMDKVIKTALLGQATAPTSFLHKEHPQYHEAKVVYSHDAEKAKALFKETGLTKLRMLCTDHDWVKKCTPLIQESLTALGIQVDFTEKKSSDVYNTIDGKPEAYDVVIAPGDPSVFGTDPDLLMRWWYSGDTWTDTRMHWKGTEAYAKLQEVLDAGLAATSESEQKNKWHEALDIISENVPLYPLLHRKAPTAWDASTLVDFKPISLTGLSFSGVGTTQ,not soluble
10,MGHHHHHHSHMFSEECIMDVIGCLEYDPALSQPRKHREFLTKTAKFKEVIPISDPELKQKIHQTYRVQYIQDMVLPTPSVFEENMLSTLHSFIFFNKVEIVGMLQEDEKFLTDLFAQLTDEATDEEKRQELVNFLKEFCAFSQTLQPQNRDAFFKTLSNMGILPALEVILGMDDTQVRSAATDIFSYLVEYNPSMVREFVMQEAQQNDDVSKKLTEQKITSKVNIICTNSKYLYIGSYNCFYYSF,soluble
11,MSLNIFDIAKQNQEKAWQVIKNTNIIQIWEDAGAKINLVGSLRTGLLMKHRDIDFHIYSSPLNLTDSFQAMARLAENPSIKRIECANLLHTAEACIEWHAWYQNEENELWQMDMIHIREGSRYDGYFEKVAQRISEIMTDEIRETILRLKYETPETEKIIGVEYYQAVIRDGVRDYSGFKEWRKQHPVTGVVEWMPEGHHHHHH,soluble
12,MKAYIQVKQVGKRKCSIEKMPIDFPTPPASVQELIEAVVCWQVKEYNERLQQSEMLKYLTCEEMEDKAAAGKVGFEANYNGRPAVETEAIINALQSYEDGIFRIFLDDAELGELSSSVQLKEESTLTFIRLAMLSGRLW,not soluble
13,MGSDKIHHHHHHLANLGFDFSPDFRPLAARMRPRVLSEYIGQSHLLGEGKALRVALEANRAHSMLLWGPPGTGKTTLAELIAHYANAHVERISAVSSGVKDIRAAIEQAKAVAQSRGQRTLLFVDEVHRFNKSQQDAFLPYIEDGTVIFVGATTENPSFELNNALLSRARVYLIHKLTETEITEIIIQALEDTERGLGKRQLIIPPEVMAELTHVSDGDARKALNLIELMSDLVADGDAVNLEMLSQVVGHKAAGYDKNGDQFYDLISAVHKSIRGSAPDAALYWFCRILEGGGDPLYVARRLLAIASEDIGNADPVAMTVALNAWDCFHRVGPAEGERAIAQAVLYLASAPKSNAVYTAFSAARELAHATGHEAVPNHLRNAPTKLMKTLAVGEGYRYAHDEPNAYAAGECYLPPSLEGQQFYQPTERGFEKRIKEKLAQLNQLDGHSRVKRYD,not soluble
14,MSLNEITVSLDVIIKNKNVMVSSLSVAKAFDRQHSHILRSIEDIKRDWDSLIQSKNGLNRNIIPLKSQGNKQVIFTDYFKESEYIAENGRLVKFFEMNRNGFMLLANSFNGKRILPIKLAFIERFDELEHITLEQAKETENRKNLNQAIKESPHFKPFYYSRFSDFLCQLITHNKYKTVKKLREDKGYYGKQFSKIPLKSMLDSEEDLKRLQKLENSIIAWLEIDYSFREIKAFLTKEKAQPLPTKEGHHHHHH,not soluble
15,MAEKKLLLGDEAIALGAIHAGISGVYAYPGTPSTEITEFIQNNRLAKERKLHSTWCTNEKTAMEAALGMSYAGKRALVCMKHVGMNVAADAFVNSAITGVNGGLVVLAADDPSMHSSQNEQDSRFYGKFAMIPMLEPSSQQEAYDMMDYAYTLSEKLKLPVLMRVVTRLAHSRAGVEVADIREENQLNPD,soluble
16,MGSDKIHHHHHHMLVVKDKPKSPISEAYRTLRSNIQFSSFDKDMQLILITSSGPGEGKSTTSCNLALAMAEAGNSVLLLDCDLRKPSVHKKFKISNNIGLSNVLAGQTKFESASHWYNQNLCILTAGKIPPNPAEMLSSKRMKAFLNEAKGVFKYIILDAPPVIAVTDPQILSTMVDGVVLVVSSGVADIEAAKRAKELLENVNANIIGSVLNRVDTESRRGYYGGYYYYYGDEGEKVKKHKDR,not soluble
17,MASTSAATPLKNKRKFENGKKKPKTLKDEFGEKLDIKPVIVPPKPADEYDYDSSDEEDLRNTIGNIPIKWYDDEDHIGYDKFGEKIAKPAKKGEIETFLEKMEDPDYWRKVFDKQTGTDVKLTDEQIEKIHNIATGKYPTIGYNPYEPFLDIFSSQKEIHPIDNRPEPKSRFIPSKDEMRMVSRMVHAIKMGWAKGPRAKKEEHKSYDLWASEDALDNVTKSQLSRMRVHMPAPKVALPTHAESYNPPEEYIFDDEERKKWEEAEKEDRVLNFMPSKYDALRKVPQYDKFITERFERCLDLYLAPRQRKMRIHADPTDLLPDLPNPNDLRPFPTTLAFYMRGHTGQVRAITVEPERGELLASGGEDGTVRIWMIATGRCIKTFQMDGEVTSVSFSPVADRTLLAVAYEGKYVAILNTGCGDRLHVQQTEALLAETPTDAQEDGAVVTWRKSKEKLMLKMPNEVRQVTWHSKGDYFASVAIDDIAKSVYVHQLSKAKSQCPFQKRKGHVQAVTFHPTQARLFVATKIHVREYDLARCVLVKKLITGCKHISTMATDANGENLFLGGLDRRFCWMDLQMGNKPWKKLKHHTAAVRSVAYHKKYPLLATVSDDGTAMVYYARIYTDFVKDNELYPVKRLRAHEKTPNDLCMLHTTWHPTQPWLITAGADGTIALFTY,not soluble
18,MAANGVATLNSSGKLAQMPSASDVGALPITGGEMQGALKLKANQYGGSGPADEKYALDCQNSNIVNVNRILTADPAGSASEGWGFQREDDPDAYDVIWASNGTLYFTPGFKYNTPPYPANQRVLATTDNIALTNYLRQEYNKLKESEGTPTLNDIINGFGFCYNDSSNGAGLDGTYLTVSGMLDNKYRLQLLGQYNGSNWLAYRTRNGDEQSWNPWHKVLTDNINAAISARHQYTSSSYPQIYGNGILQLGGDSRNEYGVVLRSNGTDEANAFRPSVNAGTTGHLYLGVANQKWRAVFAQNGTIQTSDRNAKHDITDLDPEKITAFIMGLKPSSYVFNDADSGRTHWGLISQDIEELFPQLGMTSMDFAGFIKSPKTEDYYEDVPETVTDEETGEEKTVTRKELKTRTVEGEYIYSLRYDEFIAPLICMVQRQQRQIEYLERRLSASESKEEAKLEHHHHHH,not soluble
19,MGRTQPCGGSCISSTYTLKKNRPCGWSAPPGSRILNQQPQGWPHNQTGCNVHKKIVVPSATDMATRFTQDSFVFDCLSMYYVIDDPWAENCLAAGVNATNVTFGTEQPWDIVLRDFDSGLEKIERSPYLALATNRQEIDAANKQGKLAVIIGTQGSAMVDLEFHRLRTMHRLGMRYFGLAYTGPTMFADGCGESRNAGLSFAGIELIDACNDLGLILDLSHVGHRSREETVARSRFPVCTHSNSYALNPNDRNTTDETARAIRAKGGIMGICGLPKTVHPENATLNELLDHADHWVKTIDAAHVGFGLDFVEAYKSDRSTMPAASRLWRTRRPDIFGTVEEFHLQDYPLGIASIKQLPNLTQGLFDRGYAEKEVAGIIGGNWLRHFTEVYG,not soluble
